Data published in PMC12297413.

Molecular target: HgcR (D-2-hydroxyglutarate catabolic regulator), PP4494 (Pseudomonas putida KT2440)
Assay: SEC

HgcR (D-2-hydroxyglutarate catabolic regulator), PP4494 (natural protein)
stoichiometry N: 2
